{"source": "paper PMC4609182", "about": "(The EMBO Journal, 2015)"}
{"biological_target": "T1, UbcH7 (E2 ubiquitin-conjugating enzyme) (UniProt P68036 1-154)", "T1 sequence (P68036 whole entry)": "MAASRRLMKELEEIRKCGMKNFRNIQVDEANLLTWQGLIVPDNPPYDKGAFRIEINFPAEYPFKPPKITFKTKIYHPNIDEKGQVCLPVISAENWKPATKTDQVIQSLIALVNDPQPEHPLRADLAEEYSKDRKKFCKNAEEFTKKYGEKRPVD", "assay": "NMR titration; 15N-UbcH7 with unlabeled Parkin constructs with or without pUb; 1H-15N correlation spectra, 293 K; 20 mM Tris–HCl, 120 mM NaCl, 2 mM DTT, pH 7.4; binding read as loss of signals", "details": "both partners purified"}
{"binder": "W403A Parkin (enzyme, rat, UniProt Q9JK66 1-465, looked up) MIVFVRFNSSYGFPVEVDSDTSIFQLKEVVAKRQGVPADQLRVIFAGKELQNHLTVQNCDLEQQSIVHIVQRPQRKSHETNASGGDKPQSTPEGSIWEPRSLTRVDLSSHILPADSVGLAVILDTDSKSDSEAARGPEAKPTYHSFFVYCKGPCHKVQPGKLRVQCGTCRQATLTLAQGPSCWDDVLIPNRMSGECQSPDCPGTRAEFFFKCGAHPTSDKDTSVALNLITNNSRSIPCIACTDVRNPVLVFQCNHRHVICLDCFHLYCVTRLNDRQFVHDAQLGYSLPCVAGCPNSLIKELHHFRILGEEQYNRYQQYGAEECVLQMGGVLCPRPGCGAGLLPEQGQKKVTCEGGNGLGCGFVFCRDCKEAYHEGECDSMFEASGATSQAYRVDQRAAEQARAEEASKETIKKTTKPCPRCNVPIEKNGGCMHMKCPQPQCKLEWCWNCGCEWNRACMGDHWFDV", "binding result": "binds"}
{"biological_target": "Phosphorylated ubiquitin (phospho-Ser65 ubiquitin) (UniProt P0CG48 1-76, phosphoserine at 65)", "assay": "ITC; Parkin constructs titrated with pUb; 20°C; 50 mM Tris–HCl pH 7.4, 150 mM NaCl, 1 mM TCEP; stoichiometry determined experimentally", "details": "both partners purified", "units": {"Kd": "nM"}}
{"binder": "Phosphorylated Parkin (phospho-Ser65 in the Ubl domain) (enzyme, rat, UniProt Q9JK66 1-465, looked up, phosphoserine at 65) MIVFVRFNSSYGFPVEVDSDTSIFQLKEVVAKRQGVPADQLRVIFAGKELQNHLTVQNCDLEQQSIVHIVQRPQRKSHETNASGGDKPQSTPEGSIWEPRSLTRVDLSSHILPADSVGLAVILDTDSKSDSEAARGPEAKPTYHSFFVYCKGPCHKVQPGKLRVQCGTCRQATLTLAQGPSCWDDVLIPNRMSGECQSPDCPGTRAEFFFKCGAHPTSDKDTSVALNLITNNSRSIPCIACTDVRNPVLVFQCNHRHVICLDCFHLYCVTRLNDRQFVHDAQLGYSLPCVAGCPNSLIKELHHFRILGEEQYNRYQQYGAEECVLQMGGVLCPRPGCGAGLLPEQGQKKVTCEGGNGLGCGFVFCRDCKEAYHEGECDSMFEASGATSQAYRVDQRAAEQARWEEASKETIKKTTKPCPRCNVPIEKNGGCMHMKCPQPQCKLEWCWNCGCEWNRACMGDHWFDV", "Kd": 17}
{"binder": "H302A Parkin R0RBR (domain or fragment, rat) PTYHSFFVYCKGPCHKVQPGKLRVQCGTCRQATLTLAQGPSCWDDVLIPNRMSGECQSPDCPGTRAEFFFKCGAHPTSDKDTSVALNLITNNSRSIPCIACTDVRNPVLVFQCNHRHVICLDCFHLYCVTRLNDRQFVHDAQLGYSLPCVAGCPNSLIKELAHFRILGEEQYNRYQQYGAEECVLQMGGVLCPRPGCGAGLLPEQGQKKVTCEGGNGLGCGFVFCRDCKEAYHEGECDSMFEASGATSQAYRVDQRAAEQARWEEASKETIKKTTKPCPRCNVPIEKNGGCMHMKCPQPQCKLEWCWNCGCEWNRACMGDHWFDV", "Kd": 1330}
{"binder": "Parkin R0RBR module (RING0, RING1, IBR, RING2), wild type (domain or fragment, rat) PTYHSFFVYCKGPCHKVQPGKLRVQCGTCRQATLTLAQGPSCWDDVLIPNRMSGECQSPDCPGTRAEFFFKCGAHPTSDKDTSVALNLITNNSRSIPCIACTDVRNPVLVFQCNHRHVICLDCFHLYCVTRLNDRQFVHDAQLGYSLPCVAGCPNSLIKELHHFRILGEEQYNRYQQYGAEECVLQMGGVLCPRPGCGAGLLPEQGQKKVTCEGGNGLGCGFVFCRDCKEAYHEGECDSMFEASGATSQAYRVDQRAAEQARWEEASKETIKKTTKPCPRCNVPIEKNGGCMHMKCPQPQCKLEWCWNCGCEWNRACMGDHWFDV", "Kd": 22}
{"binder": "Full-length Parkin, unmodified (enzyme, rat, UniProt Q9JK66 1-465, looked up) MIVFVRFNSSYGFPVEVDSDTSIFQLKEVVAKRQGVPADQLRVIFAGKELQNHLTVQNCDLEQQSIVHIVQRPQRKSHETNASGGDKPQSTPEGSIWEPRSLTRVDLSSHILPADSVGLAVILDTDSKSDSEAARGPEAKPTYHSFFVYCKGPCHKVQPGKLRVQCGTCRQATLTLAQGPSCWDDVLIPNRMSGECQSPDCPGTRAEFFFKCGAHPTSDKDTSVALNLITNNSRSIPCIACTDVRNPVLVFQCNHRHVICLDCFHLYCVTRLNDRQFVHDAQLGYSLPCVAGCPNSLIKELHHFRILGEEQYNRYQQYGAEECVLQMGGVLCPRPGCGAGLLPEQGQKKVTCEGGNGLGCGFVFCRDCKEAYHEGECDSMFEASGATSQAYRVDQRAAEQARWEEASKETIKKTTKPCPRCNVPIEKNGGCMHMKCPQPQCKLEWCWNCGCEWNRACMGDHWFDV", "Kd": 431}
{"binder": "Full-length L266K Parkin (enzyme, rat, UniProt Q9JK66 1-465, looked up) MIVFVRFNSSYGFPVEVDSDTSIFQLKEVVAKRQGVPADQLRVIFAGKELQNHLTVQNCDLEQQSIVHIVQRPQRKSHETNASGGDKPQSTPEGSIWEPRSLTRVDLSSHILPADSVGLAVILDTDSKSDSEAARGPEAKPTYHSFFVYCKGPCHKVQPGKLRVQCGTCRQATLTLAQGPSCWDDVLIPNRMSGECQSPDCPGTRAEFFFKCGAHPTSDKDTSVALNLITNNSRSIPCIACTDVRNPVLVFQCNHRHVICLDCFHKYCVTRLNDRQFVHDAQLGYSLPCVAGCPNSLIKELHHFRILGEEQYNRYQQYGAEECVLQMGGVLCPRPGCGAGLLPEQGQKKVTCEGGNGLGCGFVFCRDCKEAYHEGECDSMFEASGATSQAYRVDQRAAEQARWEEASKETIKKTTKPCPRCNVPIEKNGGCMHMKCPQPQCKLEWCWNCGCEWNRACMGDHWFDV", "Kd": 37}
{"biological_target": "T1, UbcH7 (E2 ubiquitin-conjugating enzyme)", "assay": "ITC; Parkin constructs titrated with UbcH7; 20°C; 50 mM Tris–HCl pH 7.4, 150 mM NaCl, 1 mM TCEP; stoichiometry fixed to 1:1", "details": "both partners purified", "units": {"Kd": "nM"}}
{"binder": "Parkin R0RBR module (RING0, RING1, IBR, RING2), wild type (domain or fragment, rat) PTYHSFFVYCKGPCHKVQPGKLRVQCGTCRQATLTLAQGPSCWDDVLIPNRMSGECQSPDCPGTRAEFFFKCGAHPTSDKDTSVALNLITNNSRSIPCIACTDVRNPVLVFQCNHRHVICLDCFHLYCVTRLNDRQFVHDAQLGYSLPCVAGCPNSLIKELHHFRILGEEQYNRYQQYGAEECVLQMGGVLCPRPGCGAGLLPEQGQKKVTCEGGNGLGCGFVFCRDCKEAYHEGECDSMFEASGATSQAYRVDQRAAEQARWEEASKETIKKTTKPCPRCNVPIEKNGGCMHMKCPQPQCKLEWCWNCGCEWNRACMGDHWFDV", "Kd": "> 700000"}
{"binder": "W403A Parkin R0RBR (domain or fragment, rat) PTYHSFFVYCKGPCHKVQPGKLRVQCGTCRQATLTLAQGPSCWDDVLIPNRMSGECQSPDCPGTRAEFFFKCGAHPTSDKDTSVALNLITNNSRSIPCIACTDVRNPVLVFQCNHRHVICLDCFHLYCVTRLNDRQFVHDAQLGYSLPCVAGCPNSLIKELHHFRILGEEQYNRYQQYGAEECVLQMGGVLCPRPGCGAGLLPEQGQKKVTCEGGNGLGCGFVFCRDCKEAYHEGECDSMFEASGATSQAYRVDQRAAEQARAEEASKETIKKTTKPCPRCNVPIEKNGGCMHMKCPQPQCKLEWCWNCGCEWNRACMGDHWFDV", "Kd": 119000}
{"biological_target": "His-tagged phosphorylated ubiquitin (UniProt P0CG48 1-76, phosphoserine at 65)", "assay": "pull-down; 1 nmol His-tagged pUb on Ni-NTA resin, 15 min with 1 nmol R0RBR variant; TBS, 2 mM BME, 0.02% Igepal 630; SDS–PAGE, Coomassie", "details": "both partners purified"}
{"binder": "K161N Parkin R0RBR (domain or fragment, rat) PTYHSFFVYCKGPCHKVQPGNLRVQCGTCRQATLTLAQGPSCWDDVLIPNRMSGECQSPDCPGTRAEFFFKCGAHPTSDKDTSVALNLITNNSRSIPCIACTDVRNPVLVFQCNHRHVICLDCFHLYCVTRLNDRQFVHDAQLGYSLPCVAGCPNSLIKELHHFRILGEEQYNRYQQYGAEECVLQMGGVLCPRPGCGAGLLPEQGQKKVTCEGGNGLGCGFVFCRDCKEAYHEGECDSMFEASGATSQAYRVDQRAAEQARWEEASKETIKKTTKPCPRCNVPIEKNGGCMHMKCPQPQCKLEWCWNCGCEWNRACMGDHWFDV", "binding result": "binds"}
{"binder": "K369A Parkin R0RBR (domain or fragment, rat) PTYHSFFVYCKGPCHKVQPGKLRVQCGTCRQATLTLAQGPSCWDDVLIPNRMSGECQSPDCPGTRAEFFFKCGAHPTSDKDTSVALNLITNNSRSIPCIACTDVRNPVLVFQCNHRHVICLDCFHLYCVTRLNDRQFVHDAQLGYSLPCVAGCPNSLIKELHHFRILGEEQYNRYQQYGAEECVLQMGGVLCPRPGCGAGLLPEQGQKKVTCEGGNGLGCGFVFCRDCAEAYHEGECDSMFEASGATSQAYRVDQRAAEQARWEEASKETIKKTTKPCPRCNVPIEKNGGCMHMKCPQPQCKLEWCWNCGCEWNRACMGDHWFDV", "binding result": "binds"}
{"binder": "R271A Parkin R0RBR (domain or fragment, rat) PTYHSFFVYCKGPCHKVQPGKLRVQCGTCRQATLTLAQGPSCWDDVLIPNRMSGECQSPDCPGTRAEFFFKCGAHPTSDKDTSVALNLITNNSRSIPCIACTDVRNPVLVFQCNHRHVICLDCFHLYCVTALNDRQFVHDAQLGYSLPCVAGCPNSLIKELHHFRILGEEQYNRYQQYGAEECVLQMGGVLCPRPGCGAGLLPEQGQKKVTCEGGNGLGCGFVFCRDCKEAYHEGECDSMFEASGATSQAYRVDQRAAEQARWEEASKETIKKTTKPCPRCNVPIEKNGGCMHMKCPQPQCKLEWCWNCGCEWNRACMGDHWFDV", "binding result": "binds"}
{"binder": "R275A Parkin R0RBR (domain or fragment, rat) PTYHSFFVYCKGPCHKVQPGKLRVQCGTCRQATLTLAQGPSCWDDVLIPNRMSGECQSPDCPGTRAEFFFKCGAHPTSDKDTSVALNLITNNSRSIPCIACTDVRNPVLVFQCNHRHVICLDCFHLYCVTRLNDAQFVHDAQLGYSLPCVAGCPNSLIKELHHFRILGEEQYNRYQQYGAEECVLQMGGVLCPRPGCGAGLLPEQGQKKVTCEGGNGLGCGFVFCRDCKEAYHEGECDSMFEASGATSQAYRVDQRAAEQARWEEASKETIKKTTKPCPRCNVPIEKNGGCMHMKCPQPQCKLEWCWNCGCEWNRACMGDHWFDV", "binding result": "binds"}
{"binder": "R314A Parkin R0RBR (domain or fragment, rat) PTYHSFFVYCKGPCHKVQPGKLRVQCGTCRQATLTLAQGPSCWDDVLIPNRMSGECQSPDCPGTRAEFFFKCGAHPTSDKDTSVALNLITNNSRSIPCIACTDVRNPVLVFQCNHRHVICLDCFHLYCVTRLNDRQFVHDAQLGYSLPCVAGCPNSLIKELHHFRILGEEQYNAYQQYGAEECVLQMGGVLCPRPGCGAGLLPEQGQKKVTCEGGNGLGCGFVFCRDCKEAYHEGECDSMFEASGATSQAYRVDQRAAEQARWEEASKETIKKTTKPCPRCNVPIEKNGGCMHMKCPQPQCKLEWCWNCGCEWNRACMGDHWFDV", "binding result": "binds"}
{"binder": "R334A Parkin R0RBR (domain or fragment, rat) PTYHSFFVYCKGPCHKVQPGKLRVQCGTCRQATLTLAQGPSCWDDVLIPNRMSGECQSPDCPGTRAEFFFKCGAHPTSDKDTSVALNLITNNSRSIPCIACTDVRNPVLVFQCNHRHVICLDCFHLYCVTRLNDRQFVHDAQLGYSLPCVAGCPNSLIKELHHFRILGEEQYNRYQQYGAEECVLQMGGVLCPAPGCGAGLLPEQGQKKVTCEGGNGLGCGFVFCRDCKEAYHEGECDSMFEASGATSQAYRVDQRAAEQARWEEASKETIKKTTKPCPRCNVPIEKNGGCMHMKCPQPQCKLEWCWNCGCEWNRACMGDHWFDV", "binding result": "binds"}
